# Test results from PMC3064261 (Nature, 2011).
# Square brackets hold non-standard residues; d marks the D form. Ends that are not written are not given here. pS = N[C@@H](COP(=O)(O)O)C(=O)O
# Molecular target: GST-MDC1-BRCT
# Test: SPR
row,Kd,Binder
1,893 nM,AKLRFE[pS]QEMKG [MMSET phosphopeptide containing pS102]
2,287 nM,KKATQA[pS]QEY [γH2AX peptide]
